Legend:
[1] = target: T1, AP5 ζ/σ5 subcomplex, purified (mouse GST-AP5ζ-Twin-Strep with human AP5σ5) (mouse | human, UniProt Q3U829 1-807; Q9NUS5 1-200); test: SEC
T1 sequence (looked up) 1: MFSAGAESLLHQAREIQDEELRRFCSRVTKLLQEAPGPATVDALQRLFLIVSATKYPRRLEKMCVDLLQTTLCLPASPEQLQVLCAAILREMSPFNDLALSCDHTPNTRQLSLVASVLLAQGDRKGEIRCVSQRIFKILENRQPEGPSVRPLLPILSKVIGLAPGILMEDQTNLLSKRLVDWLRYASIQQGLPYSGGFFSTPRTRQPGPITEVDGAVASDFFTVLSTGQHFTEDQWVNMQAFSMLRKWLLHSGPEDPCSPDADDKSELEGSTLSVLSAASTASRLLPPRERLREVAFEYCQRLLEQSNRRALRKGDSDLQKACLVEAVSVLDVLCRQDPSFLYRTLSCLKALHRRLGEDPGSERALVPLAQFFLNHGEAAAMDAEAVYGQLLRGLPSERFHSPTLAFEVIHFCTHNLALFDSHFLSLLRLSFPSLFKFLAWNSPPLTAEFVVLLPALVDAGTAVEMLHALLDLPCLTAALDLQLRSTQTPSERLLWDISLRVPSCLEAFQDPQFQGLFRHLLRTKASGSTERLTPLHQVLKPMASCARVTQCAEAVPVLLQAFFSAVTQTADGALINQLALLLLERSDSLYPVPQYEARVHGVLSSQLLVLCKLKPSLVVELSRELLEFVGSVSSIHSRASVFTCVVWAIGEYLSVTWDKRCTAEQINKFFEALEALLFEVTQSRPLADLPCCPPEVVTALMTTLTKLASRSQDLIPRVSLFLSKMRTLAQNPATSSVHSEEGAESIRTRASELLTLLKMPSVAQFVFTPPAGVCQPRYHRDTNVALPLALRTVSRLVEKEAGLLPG
T1 sequence (looked up) 2: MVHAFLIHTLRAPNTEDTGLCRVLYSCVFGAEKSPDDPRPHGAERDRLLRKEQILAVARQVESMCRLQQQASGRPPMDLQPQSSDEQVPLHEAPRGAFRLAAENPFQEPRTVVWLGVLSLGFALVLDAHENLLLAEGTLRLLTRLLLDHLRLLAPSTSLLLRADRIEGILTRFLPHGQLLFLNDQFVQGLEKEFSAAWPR

[2] = target: T2, AP5 β5^trunk/µ5 subcomplex, purified (human GST-AP5β5(1-632)-Twin-Strep with mouse AP5μ5) (human | mouse, UniProt Q2VPB7 1-632; Q8BJ63 1-490); test: SEC
T2 sequence (looked up) 1: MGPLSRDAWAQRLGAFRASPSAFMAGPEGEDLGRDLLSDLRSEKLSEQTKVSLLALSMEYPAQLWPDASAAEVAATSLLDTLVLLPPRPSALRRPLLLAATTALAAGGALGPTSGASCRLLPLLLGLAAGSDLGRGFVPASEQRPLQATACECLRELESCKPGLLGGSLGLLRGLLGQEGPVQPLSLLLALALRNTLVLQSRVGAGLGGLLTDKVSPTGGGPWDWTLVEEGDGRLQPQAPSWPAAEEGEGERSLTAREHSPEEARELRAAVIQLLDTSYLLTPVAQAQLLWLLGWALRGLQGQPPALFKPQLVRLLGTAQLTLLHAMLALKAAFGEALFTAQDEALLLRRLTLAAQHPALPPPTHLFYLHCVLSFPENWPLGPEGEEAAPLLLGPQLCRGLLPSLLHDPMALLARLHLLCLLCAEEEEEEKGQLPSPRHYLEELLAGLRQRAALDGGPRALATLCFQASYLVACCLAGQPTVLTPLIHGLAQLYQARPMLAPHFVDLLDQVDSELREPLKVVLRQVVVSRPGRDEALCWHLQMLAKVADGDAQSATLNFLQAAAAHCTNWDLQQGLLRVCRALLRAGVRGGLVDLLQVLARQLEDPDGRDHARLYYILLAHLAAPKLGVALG
T2 sequence (looked up) 2: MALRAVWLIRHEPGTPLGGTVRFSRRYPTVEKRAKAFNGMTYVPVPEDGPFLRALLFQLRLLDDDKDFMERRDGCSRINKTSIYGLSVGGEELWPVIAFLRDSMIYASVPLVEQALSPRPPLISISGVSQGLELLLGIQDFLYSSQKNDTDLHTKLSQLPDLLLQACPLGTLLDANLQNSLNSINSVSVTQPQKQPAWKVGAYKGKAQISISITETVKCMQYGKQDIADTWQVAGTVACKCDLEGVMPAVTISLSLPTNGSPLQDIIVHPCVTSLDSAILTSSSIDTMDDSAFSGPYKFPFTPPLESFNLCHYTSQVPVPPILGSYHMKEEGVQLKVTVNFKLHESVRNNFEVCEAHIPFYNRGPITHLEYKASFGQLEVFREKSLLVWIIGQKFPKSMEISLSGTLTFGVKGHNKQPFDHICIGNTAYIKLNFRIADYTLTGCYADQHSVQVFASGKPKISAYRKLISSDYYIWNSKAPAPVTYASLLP

binding result [1]: binds
binding result [2]: binds
B1: SPG11^WD40-hairpin (human SPG11 residues 1-525) as incubated with the AP5 subcomplexes for size exclusion chromatography (domain or fragment, UniProt Q96JI7 1-525, looked up)
chain: MAAEEGVASAASAGGSWGTAAMGRVLPMLLVPVPAEAMGQLGSRAQLRTQPEALGSLTAAGSLQVLSLTPGSRGGGRCCLEGPFWHFLWEDSRNSSTPTEKPKLLALGENYELLIYEFNLKDGRCDATILYSCSREALQKLIDDQDISISLLSLRILSFHNNTSLLFINKCVILHIIFPERDAAIRVLNCFTLPLPAQAVDMIIDTQLCRGILFVLSSLGWIYIFDVVDGTYVAHVDLALHKEDMCNEQQQEPAKISSFTSLKVSQDLDVAVIVSSSNSAVALNLNLYFRQHPGHLLCERILEDLPIQGPKGVDEDDPVNSAYNMKLAKFSFQIDRSWKAQLSSLNETIKNSKLEVSCCAPWFQDILHLESPESGNHSTSVQSWAFIPQDIMHGQYNVLQKDHAKTSDPGRSWKIMHISEQEEPIELKCVSVTGFTALFTWEVERMGYTITLWDLETQGMQCFSLGTKCIPVDSSGDQQLCFVLTENGLSLILFGLTQEEFLNRLMIHGSASTVDTLCHLNGWGR

Reference: publication doi:10.1101/2024.06.14.598999 (bioRxiv, 2024)
